Measurements reported in patent US9765127.

Molecular target: porcine pancreatic secretory PLA2 enzyme (sPLA2 1B) (porcine) (UniProt P00592)
Assay: cell-based or functional assay

UniProt P00592, sequence (P00592 23-146): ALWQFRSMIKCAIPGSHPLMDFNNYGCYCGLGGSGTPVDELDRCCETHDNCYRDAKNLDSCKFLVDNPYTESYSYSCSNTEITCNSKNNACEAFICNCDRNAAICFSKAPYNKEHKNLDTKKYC

Work on “recombinant human SCGB3A2 with N-terminus ATA (from UniProt Q96PL1 19-93)” yielded a % inhibition of sPLA2-1B activity (fluorescent HPLC assay, cleavage of UNIBIPY substrate) of 83%.
